# B1: Mab5 (antibody, human IgG1, kappa, V domains shown)
# VH: EVQLVESGGGLVQPGGSLRLSCAASGFSLSNYYVTWVRQAPGKGLEWVGIIYGSDETAYATSAIGRFTISRDNSKNTLYLQMNSLRAEDTAVYYCARDDSSDWDAKFNLWGQGTLVTVSS
# VL: AIQMTQSPSSLSASVGDRVTITCQASQSINNELSWYQQKPGKAPKLLIYRASTLASGVPSRFSGSGSGTDFTLTISSLQPDDFATYYCQQGYSLRNIDNAFGGGTKVEIKR
# B2: DVD-D5 (antibody)
# heavy: not shown
# light: DTQMTQSPSSLSASVGDRVTITCRASQSISSYLAWYQQKPGKAPKLLIYAASSLYSGVPSRFSGSGSGTDFTLTISSLQPEDFATYYCQQYSSLPYTFGQGTKLEIKSPAPNLLGGPAIQMTQSPSSLSASVGDRVTITCQASQSINNELSWYQQKPGKAPKLLIYRASTLASGVPSRFSGSGSGTDFTLTISSLQPDDFATYYCQQGYSLRNIDNAFGGGTKVEIKRTVAAPSVFIFPPSDEQLKSGTASVVCLLNNFYPREAKVQWKVDNALQSGNSQESVTEQDSKDSTYSLSSTLTLSKADYEKHKVYACEVTHQGLSSPVTKSFNRGEC
# notes: Monospecific control: dual variable domain human IgG1 like DVD-45 but with the Mab4 VL replaced by a germline-like dummy VL
# B3: DVD-45 (bispecific antibody, human IgG1, kappa)
# heavy: not shown
# light: DIVLTQSPASLAVSLGQRATISCRASESVGNFGISFMNWFQQKPGQPPKLLIYTASNQGSGVPARFSGSGSGTDFSLNIHPMEEDDSAMYFCQQSKEIPWTFGGGTKLEIKSPAPNLLGGPAIQMTQSPSSLSASVGDRVTITCQASQSINNELSWYQQKPGKAPKLLIYRASTLASGVPSRFSGSGSGTDFTLTISSLQPDDFATYYCQQGYSLRNIDNAFGGGTKVEIKRTVAAPSVFIFPPSDEQLKSGTASVVCLLNNFYPREAKVQWKVDNALQSGNSQESVTEQDSKDSTYSLSSTLTLSKADYEKHKVYACEVTHQGLSSPVTKSFNRGEC
# notes: Bispecific, tetravalent human IgG1 dual variable domain IgG: variable domains of Mab4 appended to the N-termini of the variable domains of Mab5
# B4: Mab4 (antibody, human IgG1, kappa)
# heavy: not shown
# light: DIVLTQSPASLAVSLGQRATISCRASESVGNFGISFMNWFQQKPGQPPKLLIYTASNQGSGVPARFSGSGSGTDFSLNIHPMEEDDSAMYFCQQSKEIPWTFGGGTKVEIKRTVAAPSVFIFPPSDEQLKSGTASVVCLLNNFYPREAKVQWKVDNALQSGNSQESVTEQDSKDSTYSLSSTLTLSKADYEKHKVYACEVTHQGLSSPVTKSFNRGEC
# B5: Mab4-5L5H (bispecific antibody, human IgG1, kappa)
# heavy: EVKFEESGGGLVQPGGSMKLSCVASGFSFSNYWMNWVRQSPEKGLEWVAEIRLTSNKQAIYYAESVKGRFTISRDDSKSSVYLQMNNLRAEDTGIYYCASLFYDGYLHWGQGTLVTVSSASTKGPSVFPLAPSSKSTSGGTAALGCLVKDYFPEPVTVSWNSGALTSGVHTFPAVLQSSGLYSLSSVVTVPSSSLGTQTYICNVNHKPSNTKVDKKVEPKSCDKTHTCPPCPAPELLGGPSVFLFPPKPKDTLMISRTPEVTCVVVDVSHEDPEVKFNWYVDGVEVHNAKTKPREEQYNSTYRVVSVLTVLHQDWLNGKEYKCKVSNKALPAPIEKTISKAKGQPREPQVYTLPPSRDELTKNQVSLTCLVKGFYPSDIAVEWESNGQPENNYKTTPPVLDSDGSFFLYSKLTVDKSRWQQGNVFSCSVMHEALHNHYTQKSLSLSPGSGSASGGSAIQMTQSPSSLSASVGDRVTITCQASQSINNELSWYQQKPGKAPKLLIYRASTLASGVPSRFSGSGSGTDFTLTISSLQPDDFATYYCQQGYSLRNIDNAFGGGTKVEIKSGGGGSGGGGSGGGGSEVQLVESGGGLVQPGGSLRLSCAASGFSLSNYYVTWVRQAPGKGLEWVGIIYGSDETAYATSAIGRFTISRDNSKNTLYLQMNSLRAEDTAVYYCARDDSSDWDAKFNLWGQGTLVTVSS
# light: B4 light
# notes: Bispecific, tetravalent human IgG1-scFv fusion: Mab5 scFv (VL-VH) fused to the C-terminus of CH3 of Mab4
# Tests used:
# [1] = target: T1, human IL-6 (human, UniProt P05231 30-212); assay: cell-based or functional assay
# [2] = target: T2, Human C1q (Calbiochem, 204876) (human, UniProt P02745 23-245; P02746 28-253; P02747 29-245); assay: ELISA on coated human C1q; antibody preincubated with equimolar IL6 or without IL6; anti-human Fc HRP detection
# T2 construct: Bought human C1q coated on ELISA plates; also called complement C1q; complement component C1q
# T2 sequence (P02745 23-245 limits assumed, chain 1 of 3): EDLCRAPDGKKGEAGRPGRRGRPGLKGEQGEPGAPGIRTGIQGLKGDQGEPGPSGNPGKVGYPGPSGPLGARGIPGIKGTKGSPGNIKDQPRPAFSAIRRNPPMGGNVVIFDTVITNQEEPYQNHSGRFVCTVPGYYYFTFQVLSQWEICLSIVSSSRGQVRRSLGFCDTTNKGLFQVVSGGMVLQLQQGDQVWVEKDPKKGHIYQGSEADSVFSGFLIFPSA
# T2 sequence (P02746 28-253 limits assumed, chain 2 of 3): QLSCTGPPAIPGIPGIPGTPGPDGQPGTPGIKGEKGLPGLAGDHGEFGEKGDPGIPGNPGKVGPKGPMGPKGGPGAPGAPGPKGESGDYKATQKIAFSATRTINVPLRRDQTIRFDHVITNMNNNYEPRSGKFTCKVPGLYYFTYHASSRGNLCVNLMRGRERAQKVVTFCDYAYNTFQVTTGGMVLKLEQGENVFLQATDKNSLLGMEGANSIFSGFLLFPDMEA
# T2 sequence (P02747 29-245 limits assumed, chain 3 of 3): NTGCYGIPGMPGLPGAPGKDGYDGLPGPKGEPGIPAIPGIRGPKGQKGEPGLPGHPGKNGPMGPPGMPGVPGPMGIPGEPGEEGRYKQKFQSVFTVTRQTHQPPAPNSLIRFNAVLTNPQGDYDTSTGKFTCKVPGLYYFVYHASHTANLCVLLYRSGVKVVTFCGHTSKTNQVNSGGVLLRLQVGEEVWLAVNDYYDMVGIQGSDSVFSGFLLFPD
# Method: (§1) Determination of immune complex binding to complement C1q was performed using ELISA. Human C1q (Calbiochem, 204876) was coated onto maxisorp ELISA plates (NUNC, Denmark) at a concentration of 16 microgram/ml in a buffer containing 10 mM Tris HCl, pH 8 for 1 h and washed twice with 1× phosphate buffered saline supplemented with 0.1% Tween-20 (Merck KGaA, Germany, 8.17072.1000) (PBST). Plates were blocked with 2% skimmed milk powder (Roth, Germany T145.3) in PBST for 30 min and again washed twice with PBST. The prepared plates were then incubated with a preformed complex of antibody and IL6, at an equimolar IL6 and antibody binding site concentration of 11 nM, or with 11 nM antibody incubated without IL6, for 30 min.
# [3] = target: T2, Human C1q (Calbiochem, 204876); assay: ELISA on coated human C1q; preformed complex of antibody and IL6, 11 nM binding sites; anti-human Fc HRP detection
# Method: as §1
# [4] = target: T1, human IL-6; assay: inferred from IL6-dependent signal in C1q ELISA; antibody preincubated with equimolar IL6 at 11 nM
# Method: as §1
Binder,IC50 on 7TD1 cells (pM) [1],IC50 on B9 cells (pM) [1],binding result [2],binding result [3],binding result [4]
B1,19.9 pM,26.1 pM,–,–,–
B2,–,–,no binding (tested: 11 nM),–,–
B3,1.3 pM,2.9 pM,–,binds,–
B4,2.6 pM,8.4 pM,no binding (tested: 11 nM),–,–
B5,–,–,–,binds,binds

# From patent US20140255405A1 (published 2014)
